The supplement of paper PMC12338614

B1: library; numbered along this chain (parent)
chain: MEVVDPQQLGMFTEGELMSVGMDTFIHRIDSTEVIYQPRRKRAKLIGKYLMGDLLGEGSYGKVKEVLDSETLCRRAVKILKKKKLRRIPNGEANVKKEIQLLRRLRHKNVIQLVDVLYNEEKQKMYMVMEYCVCGMQEMLDSVPEKRFPVCQAHGYFCQLIDGLEYLHSQGIVHKDIKPGNLLLTTGGTLKISDLGVAEALHPFAADDTCRTSQGSPAFQPPEIANGLDTFSGFKVDIWSAGVTLYNITTGLYPFEGDNIYKLFENIGKGSYAIPGDCGPPLSDLLKGMLEYEPAKRFSIRQIRQHSWFRKKHPPAEAPVPIPPSPDTKDRWRSMTVVPYLEDLHGADEDEDLFDIEDDIIYTQDFTVPGQVPEEEASHNGQRRGLPKAVCMNGTEAAQLSTKSRAEGRAPNPARKACSASSKIRRLSACKQQ

Variants of: B1
Assay: STK11 functional score (HeLa growth suppression), rescaled enrichment; synonymous median = 1, nonsense median = 0 (normalised score)
Conditions: with HeLa; variant type: missense
Description: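 Deep mutational scan (TileSeq/POPCode codon randomisation) of full-length codon-optimised STK11 cDNA integrated at a Bxb1 landing pad (AAVS1) in HeLa cells. Restoring functional STK11 suppresses HeLa proliferation. Variant frequencies were measured by NGS before and after about two weeks of growth. The error-corrected enrichment log-ratio was rescaled so that synonymous median = 1 and nonsense median = 0, scores above 1 were compressed, and codon-level and three biological replicate scores were combined; error is the bootstrapped standard error. Scale: synonymous median = 1, nonsense median = 0; below 0.5 = damaging.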

STK11 functional score, by site and new letter:
S19: V 0.694; L 0.775; P 1.32; W 1.43; I 1.34; E 1.45; F 0.945; G 1.64; K 1.53; R 0.749; Y 1.01; H 0.00479; A 0.891
T32: G 1.45; S 1.45; L 1.16; R 1.36; A 1.66; P 1.48; W 1.52; V 1.41; Y 0.666; I 0.842; H 1.68; K 0.829
V4: R 1.32; G 1.03; F 0.964; H 1.65; I 1.43; D 1.45; L 0.909; W 1.22; E 1.09; T 1.06; S 0.996; P 1.03
D5: N 1.24; H 1.13
S31: Q 1.37; W 0.921; V 1.58; Y 1.36; L 1.02; D 1.28; T 1.5; A 1.44; I 1.41; R 1.54; F 0.829; H -0.108; M 0.857; G 1.57
I29: H 0.0412; Y 1.12; L 1; W 1.63; C 1.41; N 1.49; R 1.14; V 1.68; T 0.53; F 0.117; S 1.32; E 1.4; M 0.901; G 1.16
E2: Q 1.21; K 1.16; V 1.36
V34: R 0.822; I 1.1; L 1.13; A 1.03; D 0.585; S 1.29; F 0.976; G 1.08; C 0.884; Y 1.05
T13: F 1.25; V 1.6; S 0.282; W 0.14; P 1.58; A 1.5; I 1.01; L 0.906; K 0.0631; R 1.08; C 1.59; G 0.27
P6: I 1.61; M 0.679; A 0.942; F 0.754; D 1.66; S 1.52; T 0.874; C 1.1; E 1.24; W 0.513; G 0.386; V 1.5; R 1.29; L 0.99; Y 1.67
L9: S 1.37; M 1.01; F 1.06; P 1.43; N 1.67; H 1.67; A 1.28; W 1.49; I 1.37; V 0.506; R 1.12; Y 1.56; C 1.54
I26: M 1.63
D23: G 1.54; H 1.22
M18: I 0.652; S 1.31; Y 1.43; H 1.37; Q 1.28; E 1.56; D 0.127; A 1.69; W 0.78; L 1.08; V 0.413; G 1.36; P 1.69; T 1.62; R 0.834; C 0.902
V20: I 1.22; T 1.6; G 1.43; A 1.29; C 0.242; R 1.56; H 1.44; P 1.43; L 0.787; D 1.59; S 1.46
M22: G 1.07; S 1.68; T 1.63; C 1.21; F 1; W 0.633; P 1.54; A 1.21; H 1.67; V 1.13; R 1.65; Y 1.57
Q8: L 1.5; K 0.838
G10: D 1.4; I 1.64; S 1.17
